Consider 20 substances from patent US7144986B2, “Polypeptides comprising IL-6 ligand binding receptor domains” (The United States of America as represented by the …, priority 1999, dated 2006).

The target of this assay is recombinant human IL-6 (Homo sapiens, UniProt P05231). Description: Binding of radioiodinated recombinant human IL-6 to synthetic peptide arrays in 96-well microtiter plates. The following applies: for Initial screening of IL-6 receptor primary sequence for binding of IL-6 ligand: receptor sequence taken 21 amino acid residues at a time. As for the experimental part:
Synthetic peptide arrays were constructed in 96-well microtiter plates in accordance with the method set forth in WO 91/02714 (Saxinger), and used to test the binding of recombinant human IL-6 that had been labeled with radioactive iodine (radiolabeling by standard methods). After incubating the radiolabeled IL-6 ligand in a well with each synthetic peptide, a washing step was performed to remove unbound label, and the relative level of radioactivity remaining in each well of the plate was evaluated to determine the relative affinity of each peptide for IL-6 ligand.
Each of the four binding domains was analyzed in detail, which is set forth in these examples. First, serial truncations (or nested truncations) were performed from each end of the peptides to determine the location of the critical binding residues within each domain. Second, each amino acid residue in the critical regions of each domain were serially replaced by an alaninyl residue to indicate whether the side-chain of the residue at each particular location is likely to be essential or important to the mechanism of binding.
This example employs essentially the same techniques as Examples 1–4 except that fragments of the β-chain of the IL-6 receptor are used. As is known in the art, the β-chain is shared by multiple receptors. Thus, the identified fragments here are effective inhibitors of a multiplicity of binding reactions in addition to the IL-6 ligand:IL-6 receptor interaction.

Where [1] appears, read: Example 1, domain I peptides (IL-6 receptor residues 66–86): truncations and alanine replacements, radiolabeled IL-6 remaining after wash.
Setting [2] is: Example 4, domain IV peptides, D11–D57, separate experiment: truncations and alanine replacements.
The mark [3] stands for this setting: Example 5, fragments of the β-chain of the IL-6 receptor.
The mark [4] stands for this setting: Example 2, domain II peptides (IL-6 receptor residues 136–156): truncations and alanine replacements.
The mark [5] stands for this setting: Example 3, domain III peptides (IL-6 receptor residues 246–266): truncations and alanine replacements.

Sequence of recombinant human IL-6 (P05231 30-212): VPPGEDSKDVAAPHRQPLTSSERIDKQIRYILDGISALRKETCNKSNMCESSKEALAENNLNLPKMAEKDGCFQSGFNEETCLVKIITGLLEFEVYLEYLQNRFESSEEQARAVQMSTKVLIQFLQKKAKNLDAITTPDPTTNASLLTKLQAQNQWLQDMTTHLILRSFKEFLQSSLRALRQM

Regarding AAGSHPSRWAGMGRRL [Peptide A6], the Counts/minute bound under setting [1] is recorded as 1753 Counts/minute. AAGSHPSRWAGMGRRLLLRSV [Peptide A1]: the “Initial screening of IL-6 receptor primary sequence for binding of IL-6 ligand” value (“Initial screening” for short) is on record as “active binding sequences”. In addition, the Counts/minute bound under setting [1] worked out at 10739 Counts/minute. For the substance AAGSHPSRWAGMGRRLLLRSV [Peptide A17], the Counts/minute bound under setting [1] turned out to be 10884 Counts/minute. Same read-out and setting: in the case of AAGSHPSRWAGMGRRLLLRSV [Peptide A33] it was 10213 Counts/minute. As for GGSLAFGTLLCIAIVLRFKKT [Peptide D5], the “Initial screening” value is “active binding sequences”. Take GGSLAFGTLLCIAIVLRFKKT [Peptide D11]: under setting [2], the Counts/minute bound turned out to be 20349 Counts/minute.

Turning to GGSLAFGTLLCIAIVLRFKKT [Peptide D27], under setting [2], the Counts/minute bound is listed as 21945 Counts/minute. The same measure, in the same setting: under GGSLAFGTLLCIAIVLRFKKT [Peptide D43] stands 20385 Counts/minute.

Take LRFKKT [Peptide D42]: under setting [2], the Counts/minute bound is recorded as 1958 Counts/minute. In the case of LTCNILTFGQLEQNVYGITIISGL [Peptide E11], the Counts/minute bound under setting [3] amounted to 1816 Counts/minute. Consider PRSTPSLTTKAVLL [Peptide B8], for which the Counts/minute bound under setting [4] is listed as 1846 Counts/minute. On to PRSTPSLTTKAVLLVRKFQNS [Peptide B1], for which the “Initial screening” value is given as “active binding sequences”. Besides, the Counts/minute bound under setting [4] came out at 10790 Counts/minute. As for PRSTPSLTTKAVLLVRKFQNS [Peptide B17], the Counts/minute bound under setting [4] came out at 12347 Counts/minute. Same read-out and setting: under PRSTPSLTTKAVLLVRKFQNS [Peptide B33] stands 11699 Counts/minute.

SDKAPCITDWQQEDGTVHRTYLRG [Peptide E47]: the Counts/minute bound under setting [3] was 2079 Counts/minute. For SSFYRLRFELRYRAERSKTFT [Peptide C1], the “Initial screening” value is given as “active binding sequences”. For the same substance, under setting [5], the Counts/minute bound is 14571 Counts/minute.

For the substance SSFYRLRFELRYRAERSKTFT [Peptide C17], the Counts/minute bound under setting [5] was 15127 Counts/minute. On the same count and under the same terms, under SSFYRLRFELRYRAERSKTFT [Peptide C33] stands 14610 Counts/minute. For the substance TKAVLLVRKFQNS [Peptide B25], under setting [4], the Counts/minute bound was 5753 Counts/minute. Same read-out and setting: under TKAVLLVRKFQNS [Peptide B26] stands 5226 Counts/minute.
